Experimental data published in US20190263905A1 (DINONA, published 2019).

T1: Antigen CD66c (CEACAM6; Sino Biological, Inc.) (UniProt P40199 35-320)
T1 construct: Bought antigen coated on the ELISA plate; construct not described; also called CD66c antigen; CECACAM6
T1 sequence (looked up): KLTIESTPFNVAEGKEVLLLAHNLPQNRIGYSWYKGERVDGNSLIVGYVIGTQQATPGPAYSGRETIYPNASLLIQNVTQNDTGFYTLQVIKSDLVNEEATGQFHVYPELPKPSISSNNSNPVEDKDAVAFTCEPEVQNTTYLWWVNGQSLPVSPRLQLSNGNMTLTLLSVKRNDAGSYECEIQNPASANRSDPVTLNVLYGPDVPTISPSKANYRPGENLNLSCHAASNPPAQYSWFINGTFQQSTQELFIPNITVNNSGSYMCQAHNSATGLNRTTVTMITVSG

T2: CEACAM1 antigen (Sino Biological, Inc.) (UniProt P13688 35-428)
T2 construct: Bought antigen coated on the ELISA plate; construct not described; also called CEACAM1 (CD66a) antigen; CD66a
T2 sequence (looked up): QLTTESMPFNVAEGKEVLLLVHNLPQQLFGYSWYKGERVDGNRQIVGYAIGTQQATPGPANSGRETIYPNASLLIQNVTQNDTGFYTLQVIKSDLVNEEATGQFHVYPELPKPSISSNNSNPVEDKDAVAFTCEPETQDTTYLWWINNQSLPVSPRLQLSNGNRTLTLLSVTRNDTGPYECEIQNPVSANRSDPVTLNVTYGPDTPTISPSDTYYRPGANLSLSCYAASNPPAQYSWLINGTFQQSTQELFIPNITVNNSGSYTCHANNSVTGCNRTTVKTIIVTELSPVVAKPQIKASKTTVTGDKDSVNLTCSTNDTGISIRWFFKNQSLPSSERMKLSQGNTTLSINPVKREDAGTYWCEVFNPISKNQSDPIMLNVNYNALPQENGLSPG

T3: CD66c (CEACAM6) on CD66c-positive A549 non-small-cell lung cancer cells (UniProt P40199 35-320, limits assumed)
T3 construct: whole, on cells; also called CD66c antigen; NCA-90
T3 sequence (looked up): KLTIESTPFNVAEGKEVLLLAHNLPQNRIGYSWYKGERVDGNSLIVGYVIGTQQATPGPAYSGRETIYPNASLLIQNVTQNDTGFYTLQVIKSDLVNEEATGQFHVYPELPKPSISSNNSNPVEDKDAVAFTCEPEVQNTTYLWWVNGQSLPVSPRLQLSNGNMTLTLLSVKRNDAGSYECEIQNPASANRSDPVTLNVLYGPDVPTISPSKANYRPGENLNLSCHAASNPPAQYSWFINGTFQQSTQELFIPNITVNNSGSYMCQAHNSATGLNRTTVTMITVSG


How the values were obtained:
[1] = target: T1, Antigen CD66c (CEACAM6; Sino …); test: ELISA, coated CEACAM6 100 ng/well, antibody 0.17 ng/ml
Procedure: (§1) Antigen CD66c (CEACAM6; Sino Biological, Inc.) and CEACAM1 antigen (Sino Biological, Inc.) were coated on a 96-well plate at 100 ng per well and then blocked. The primary antibody was diluted serially three fold from 10 ug/ml at initial concentration and was bound at 37° C. for 1 hour, and goat anti-Human Ig-HRP conjugate (Jackson ImmunoResearch) as a secondary antibody was diluted 1:10,000 and incubated at 37° C. for 30 minutes. The washing was carried out at three times between each step, and the TMB reaction was performed, stopped with 1N H₂SO₄ solution at the same amount of TMB solution (100 ul) and then OD value was measured at 450 nm.
(§2) As a result of the experiment, the binding affinities to CD66c antigen of the five kinds of recombinant humanized antibodies selected from among 96 kinds of recombinant humanized antibodies are shown in FIG. 4a, Table 12, FIG. 4b and Table 13. FIG. 4a and Table 12 show the binding capacity of the antibodies to CECACAM6 CD66c) antigen, and FIG. 4b and Table 13 are the results for the CEACAM1 (CD66a) antigen.

[2] = target: T1, Antigen CD66c (CEACAM6; Sino …); test: ELISA, coated CEACAM6 100 ng/well, antibody 1.52 ng/ml
Procedure: as §1, §2

[3] = target: T2, CEACAM1 antigen (Sino Biological, Inc.); test: ELISA, coated CEACAM1 100 ng/well, antibody 0.51 ng/ml
Procedure: as §1, §2

[4] = target: T2, CEACAM1 antigen (Sino Biological, Inc.); test: ELISA, coated CEACAM1 100 ng/well, antibody 1.52 ng/ml
Procedure: as §1, §2

[5] = target: T1, Antigen CD66c (CEACAM6; Sino …); test: ELISA, coated CEACAM6 100 ng/well, antibody 13.72 ng/ml
Procedure: as §1, §2

[6] = target: T1, Antigen CD66c (CEACAM6; Sino …); test: ELISA, coated CEACAM6 100 ng/well, antibody 41.15 ng/ml
Procedure: as §1, §2

[7] = target: T1, Antigen CD66c (CEACAM6; Sino …); test: ELISA, coated CEACAM6 100 ng/well, antibody 370.37 ng/ml
Procedure: as §1, §2

[8] = target: T2, CEACAM1 antigen (Sino Biological, Inc.); test: ELISA, coated CEACAM1 100 ng/well, antibody 123.46 ng/ml
Procedure: as §1, §2

[9] = target: T1, Antigen CD66c (CEACAM6; Sino …); test: ELISA, coated CEACAM6 100 ng/well, antibody 3333.33 ng/ml
Procedure: as §1, §2

[10] = target: T2, CEACAM1 antigen (Sino Biological, Inc.); test: ELISA, coated CEACAM1 100 ng/well, antibody 1111.11 ng/ml
Procedure: as §1, §2

[11] = target: T2, CEACAM1 antigen (Sino Biological, Inc.); test: ELISA, coated CEACAM1 100 ng/well, antibody 3333.33 ng/ml
Procedure: as §1, §2

[12] = target: T2, CEACAM1 antigen (Sino Biological, Inc.); test: ELISA, coated CEACAM1 100 ng/well, antibody 10000.00 ng/ml
Procedure: as §1, §2

[13] = target: T3, CD66c (CEACAM6) on CD66c-positive A549 …; test: flow cytometry on A549 cells, relative to chimeric antibody
Procedure: (§3) Each expressed 96 recombinant humanized antibody was poured and reacted in a test tube containing the same amount ([…]) of CD66c-positive A549 non-small-cell lung cancer cell line at 4° C. for 30 minutes, washed with PBS, and treated with FITC-conjugated goat anti-Human IgG (DiNona Inc, Korea) was added and incubated at 4° C. for 15 minutes. After washing with PBS, the cells were analyzed with a flow cytometer (Stratedigm, S1000EXi) and the results are shown below.
(§4) Among the 96 recombinant humanized antibody candidates, eight were firstly selected based on the degree of expression, the presence of aggregation, and the degree of cell binding (Table 9 and Table 10, FIGS. 3A to 3E).

[14] = target: T3, CD66c (CEACAM6) on CD66c-positive A549 …; test: flow cytometry on CD66c-positive A549 cells, mean fluorescence
Procedure: as §3, §4

Binder | OD 450 nm [1] [OD] | OD 450 nm [2] [OD] | OD 450 nm [3] [OD] | OD 450 nm [4] [OD] | OD 450 nm [5] [OD] | OD 450 nm [6] [OD] | OD 450 nm [7] [OD] | OD 450 nm [8] [OD] | OD 450 nm [9] [OD] | OD 450 nm [10] [OD] | OD 450 nm [11] [OD] | OD 450 nm [12] [OD] | % (% gated × mean) [13] [%] | Mean [14]
recombinant humanized anti-CD66c antibody Protein ID 3058 (Vk8 + VH11) (antibody, human IgG1, V domains shown, also called hu 3058; #86) VH: QVQLVQSGAEVKKPGASVKISCKASGYSFTDYTMHWVKQAPGQNLEWIGLINPFGGSTSYAQKFKGRVTMTRDTSTNTAYMELSRLRSDDTAVYYCVRGDPVRHYYALAYWGQGTLVTVSS VL: DIQMTQSPSTLSASVGDRVTITCRASENVYGTLNWYQRKPGKAPKLLIYGATNLADGMPSRFSGSGSGTEYTLTISSLQPDDFATYYCQNVLSAPYTFGGGTKLEIK | 0.37 | 0.53 | 0.04 | 0.05 | 1.06 | 1.38 | 2.8 | 0.07 | 3.18 | 0.19 | 0.31 | 0.42 | 103 | 645
recombinant humanized anti-CD66c antibody Protein ID 3007 (Vk7 + VH6) (antibody, human IgG1, V domains shown, also called hu 3007; #43) VH: QVQLVQSGAEVKKPGASMKISCKASGYSFTDYTMNWVKQAPGQNLEWIGLINPFHGGTVSNQRFKVKATLTVDVSTNTAYMELSRLRSDDTAVYYCVRGDPVRHYYALAYWGQGTLVTVSS VL: DIQMTQSPSTLSASVGDRVTITCGASENVYGTLNWYQRKPGKAPKLLIYGATNLADGVPSRFSGSGSGTEYTLTISSLQPDDFATYYCQNVLSAPYTFGGGTKLEIK | 0.53 | 0.79 | 0.11 | 0.18 | 1.64 | 2.17 | 3.16 | 0.82 | 3.24 | 1.06 | 1.15 | 1.01 | 88.8 | 565
recombinant humanized anti-CD66c antibody Protein ID 2938 (Vk5 + VH7) (antibody, human IgG1, V domains shown, also called hu 2938) VH: QVQLVQSGAEVKKPGASMKISCKASGYSFTDYTMNWVRQAPGQGLEWIGLINPFHGGTVSNQRFKVKATLTVDVSTNTAYMELSRLRSDDTAVYYCVRGDPVRHYYALAYWGQGTLVTVSS VL: DIQMTQSPSTLSASVGDRVTITCGASENVYGTLAWYQRKPGKAPKLLIYGATNLADGVPSRFSGSGSGREYTLTISSLQPDDFATYYCQNVLSAPYTFGGGTKLEIK | 0.3 | 0.48 | 0.05 | 0.05 | 1.15 | 1.72 | 3.08 | 0.1 | 3.27 | 0.21 | 0.27 | 0.32 | 96 | 611
recombinant humanized anti-CD66c antibody Protein ID 3043 (Vk8 + VH6) (antibody, human IgG1, V domains shown, also called hu 3043; #71) VH: QVQLVQSGAEVKKPGASMKISCKASGYSFTDYTMNWVKQAPGQNLEWIGLINPFHGGTVSNQRFKVKATLTVDVSTNTAYMELSRLRSDDTAVYYCVRGDPVRHYYALAYWGQGTLVTVSS VL: DIQMTQSPSTLSASVGDRVTITCRASENVYGTLNWYQRKPGKAPKLLIYGATNLADGMPSRFSGSGSGTEYTLTISSLQPDDFATYYCQNVLSAPYTFGGGTKLEIK | 0.41 | 0.7 | 0.1 | 0.16 | 1.37 | 1.73 | 2.92 | 0.7 | 2.95 | 1.17 | 1.22 | 0.91 | 105 | 686
anti-CD66c chimeric antibody 8F5 (antibody, human IgG1, V domains shown, also called chimeric 8F5 antibody; chi 8F5) VH: EVQLQQSGPELVKPGASMKISCKASGYSFTDYTMNWVKQSHGKNLEWIGLINPFHGGTVSNQRFKVKATLTVDVSSNTAYMELLSLTSDDSAVYYCVRGDPVRHYYALAYWGQGTSVTVSS VL: DIQMTQSPASLSASVGETVTITCGASENVYGTLNWYQRKQGKSPQLLIYGATNLADGMSSRFSGSGSGRQYSLKISSLHPDDVATYYCQNVLSAPYTFGGGTKLEII | 0.4 | 0.53 | 0.1 | 0.16 | 1.15 | 2.02 | 3.3 | 0.95 | 3.41 | 1.21 | 1.24 | 1.21 | 100 | 619
